Experimental data taken from paper PMC12823420.

What was measured:
UAP56 = UAP56 (Homo sapiens, UniProt Q13838 1-428); test: GCI; 1 mM ATP; RNA immobilized; GCI: 25 mM HEPES pH 7.9, 50 mM KCl, 1 mM MgCl2, 1 mM TCEP, 1 mM ATP, 25 C; AdML pull-down: 20 mM HEPES pH 7.9, 100 mM KCl, 2 mM MgCl2, 5% glycerol, 0.1% Igepal, 1 mM AMP-PNP, RT; unclamping: same with 40 mM KCl, 500 mM KCl washes; conditions: protein: recombinant; otherwise unlabelled; single strand
UAP56-UCM-1 fusion = UAP56-UCM-1 fusion (Homo sapiens, UniProt Q13838 1-428+P82979:82-115, internal_change); test: as above; conditions: protein: recombinant; tags: 10xHis; otherwise unlabelled; single strand

B1: 15U RNA (ssRNA)
RNA: UUUUUUUUUUUUUUU
Q: How did the Kd (UAP56) turn out when B1 was run?
A: 780 ± 90 nM

Q: What about the Kd (UAP56-UCM-1 fusion) of the same binder?
A: 270 ± 60 nM
